Results on one substance are retold here after patent publication US20190256836.

The test system of the data set is T1, recombinant Factor C protein from Tachypleus tridentatus produced in Leishmania tarentolae.
T1 sequence: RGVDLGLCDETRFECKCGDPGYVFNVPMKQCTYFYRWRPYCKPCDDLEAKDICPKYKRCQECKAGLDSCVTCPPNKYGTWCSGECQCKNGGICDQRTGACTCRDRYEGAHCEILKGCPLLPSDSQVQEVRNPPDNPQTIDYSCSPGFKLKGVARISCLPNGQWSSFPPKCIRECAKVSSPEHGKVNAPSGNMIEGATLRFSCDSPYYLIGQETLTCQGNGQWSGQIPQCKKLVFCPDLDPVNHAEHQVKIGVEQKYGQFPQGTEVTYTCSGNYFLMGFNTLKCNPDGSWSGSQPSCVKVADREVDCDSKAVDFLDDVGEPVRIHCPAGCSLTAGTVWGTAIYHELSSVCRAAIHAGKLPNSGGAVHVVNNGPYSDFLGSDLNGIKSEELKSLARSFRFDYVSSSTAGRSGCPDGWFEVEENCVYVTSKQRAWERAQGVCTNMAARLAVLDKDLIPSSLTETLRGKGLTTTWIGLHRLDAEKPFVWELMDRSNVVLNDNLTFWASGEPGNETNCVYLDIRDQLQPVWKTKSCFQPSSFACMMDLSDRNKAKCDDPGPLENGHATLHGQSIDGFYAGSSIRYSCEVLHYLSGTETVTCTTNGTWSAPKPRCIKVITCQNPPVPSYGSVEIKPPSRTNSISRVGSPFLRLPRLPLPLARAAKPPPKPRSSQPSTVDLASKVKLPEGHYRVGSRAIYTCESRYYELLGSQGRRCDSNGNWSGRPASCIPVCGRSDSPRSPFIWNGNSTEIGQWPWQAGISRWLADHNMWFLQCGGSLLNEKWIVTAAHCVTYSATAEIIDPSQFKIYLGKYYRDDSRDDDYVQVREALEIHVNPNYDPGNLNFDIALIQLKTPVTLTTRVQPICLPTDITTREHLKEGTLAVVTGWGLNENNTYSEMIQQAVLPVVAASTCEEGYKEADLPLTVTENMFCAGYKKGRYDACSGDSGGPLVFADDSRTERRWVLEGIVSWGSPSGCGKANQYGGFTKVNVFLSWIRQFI
As to conditions: in U/mg.

With chymotrypsin, the specific activity of activated Factor C (hydrolysis of Boc-Val-Pro-Arg-AMC) (Units/mg protein) was 0.658.
